# From paper PMC12416549 (2024)
# T1: TNFR1 (Homo sapiens, UniProt P19438)
# T1 chain: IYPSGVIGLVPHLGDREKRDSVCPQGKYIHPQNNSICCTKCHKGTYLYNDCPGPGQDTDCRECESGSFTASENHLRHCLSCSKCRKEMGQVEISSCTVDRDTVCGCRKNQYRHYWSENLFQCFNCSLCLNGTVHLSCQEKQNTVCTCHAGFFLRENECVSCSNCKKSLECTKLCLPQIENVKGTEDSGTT
# Biological target: T1, TNFR1
# Test: yeast display SC50
row,apparent Kd (screen),Binder
1,1.05 nM,E72C (designed binder) SMEEEVEKAAKEYEKKKKEAIEKHLEKLKAKDKEAAERFLKELEEAAKEYAKDEAKTMSEEEAKRRAKKYKCKVLLSELSEEEQKEIKEAEEKLVRTILKYVEEAAK
2,0.869 nM,E22N (designed binder) SMEEEVEKAAKEYEKKKKEAINKHLEKLKAKDKEAAERFLKELEEAAKEYAKDEAKTMSEEEAKRRAKKYKEKVLLSELSEEEQKEIKEAEEKLVRTILKYVEEAAK
3,3 nM,A55V (designed binder) SMEEEVEKAAKEYEKKKKEAIEKHLEKLKAKDKEAAERFLKELEEAAKEYAKDEVKTMSEEEAKRRAKKYKEKVLLSELSEEEQKEIKEAEEKLVRTILKYVEEAAK
4,1.05 nM,E34A (designed binder) SMEEEVEKAAKEYEKKKKEAIEKHLEKLKAKDKAAAERFLKELEEAAKEYAKDEAKTMSEEEAKRRAKKYKEKVLLSELSEEEQKEIKEAEEKLVRTILKYVEEAAK
5,0.539 nM,T97K (designed binder) SMEEEVEKAAKEYEKKKKEAIEKHLEKLKAKDKEAAERFLKELEEAAKEYAKDEAKTMSEEEAKRRAKKYKEKVLLSELSEEEQKEIKEAEEKLVRKILKYVEEAAK
6,1.86 nM,E78R (designed binder) SMEEEVEKAAKEYEKKKKEAIEKHLEKLKAKDKEAAERFLKELEEAAKEYAKDEAKTMSEEEAKRRAKKYKEKVLLSRLSEEEQKEIKEAEEKLVRTILKYVEEAAK
7,22.2 nM,A67Y (designed binder) SMEEEVEKAAKEYEKKKKEAIEKHLEKLKAKDKEAAERFLKELEEAAKEYAKDEAKTMSEEEAKRRYKKYKEKVLLSELSEEEQKEIKEAEEKLVRTILKYVEEAAK
8,1.27 nM,K68G (designed binder) SMEEEVEKAAKEYEKKKKEAIEKHLEKLKAKDKEAAERFLKELEEAAKEYAKDEAKTMSEEEAKRRAGKYKEKVLLSELSEEEQKEIKEAEEKLVRTILKYVEEAAK
9,7.78 nM,E91I (designed binder) SMEEEVEKAAKEYEKKKKEAIEKHLEKLKAKDKEAAERFLKELEEAAKEYAKDEAKTMSEEEAKRRAKKYKEKVLLSELSEEEQKEIKEAIEKLVRTILKYVEEAAK
10,2.48 nM,Q84L (designed binder) SMEEEVEKAAKEYEKKKKEAIEKHLEKLKAKDKEAAERFLKELEEAAKEYAKDEAKTMSEEEAKRRAKKYKEKVLLSELSEEELKEIKEAEEKLVRTILKYVEEAAK
11,1.05 nM,K100M (designed binder) SMEEEVEKAAKEYEKKKKEAIEKHLEKLKAKDKEAAERFLKELEEAAKEYAKDEAKTMSEEEAKRRAKKYKEKVLLSELSEEEQKEIKEAEEKLVRTILMYVEEAAK
12,1.54 nM,E61I (designed binder) SMEEEVEKAAKEYEKKKKEAIEKHLEKLKAKDKEAAERFLKELEEAAKEYAKDEAKTMSEIEAKRRAKKYKEKVLLSELSEEEQKEIKEAEEKLVRTILKYVEEAAK
13,0.49 nM,K48D (designed binder) SMEEEVEKAAKEYEKKKKEAIEKHLEKLKAKDKEAAERFLKELEEAADEYAKDEAKTMSEEEAKRRAKKYKEKVLLSELSEEEQKEIKEAEEKLVRTILKYVEEAAK
14,6.43 nM,A51P (designed binder) SMEEEVEKAAKEYEKKKKEAIEKHLEKLKAKDKEAAERFLKELEEAAKEYPKDEAKTMSEEEAKRRAKKYKEKVLLSELSEEEQKEIKEAEEKLVRTILKYVEEAAK
